The data set deals with the molecule itself. Description: cross-linking.

As a reminder, the stoichiometry N is the number of molecules, sites or subunits per partner or assembly.

“And” between values parts separate entries of the source, which are not always exact repeats. Identical values can stand only once. *: point of attachment. Carboxymethyl = O=C(O)C*

B1: C-MBD of A. fulgidus CopA with carboxymethylated cysteines (domain or fragment, Archaeoglobus fulgidus, UniProt O29777 736-804, looked up)
chain: GDSVEKIVLELSGLSC(Carboxymethyl)HHC(Carboxymethyl)VARVKKALEEAGAKVEKVDLNEAVVAGNKEDVDKYIKAVEAAGYQAKLRS
Take B1: the “stoichiometry N” value was 2 and 4.

Source of the values: publication PMC2919055 (Proteins, 2010).
